The values below come from the supplement of paper PMC5998384.

The test system of data set [1] is HeLa Kyoto. Briefly: solubility change mitosis vs G1/S (difference of NP-40 vs SDS log2 ratios) (log2 ratio difference); higher = more soluble in mitosis.
For data set [2], the system named is HeLa Kyoto. Briefly: melting temperature (median over replicates), in situ; higher = more thermally stable.
The test system of data set [3] is HeLa Kyoto. The experiment in a line: thermal stability score vs G1/S (z-score of summed log2 fold changes over temperatures); higher = more thermally stable than in G1/S.
For data set [4], the system named is HeLa Kyoto. Briefly: solubility in G1/S (NP-40 vs SDS abundance) (log2 ratio); higher = more soluble. The following applies: cell cycle stage: G1/S.
[5] abbreviates: cell cycle stage: early G1 (4.5 h after nocodazole release).
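Wherever melting temperature (median over replicates), in situ is given: HeLa Kyoto cells synchronized by double thymidine or nocodazole block, proteins quantified by TMT10plex mass spectrometry, three independent biological replicates.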
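Wherever solubility change mitosis vs G1/S (difference of NP-40 vs SDS log2 ratios) is given: synchronized HeLa Kyoto cells (double thymidine block for G1/S, nocodazole release for mitosis), protein amounts in NP-40 versus SDS lysates quantified by mass spectrometry, three biological replicates.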
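Wherever solubility in G1/S (NP-40 vs SDS abundance) is given: HeLa Kyoto cells arrested at G1/S by double thymidine block, proteins quantified by TMT10plex mass spectrometry in mild NP-40 versus SDS extracts, three biological replicates.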
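Wherever thermal stability score vs G1/S (z-score of summed log2 fold changes over temperatures) is given: synchronized HeLa Kyoto cells, proteins quantified by TMT10plex mass spectrometry, three biological replicates, mitosis taken 0.5 h after nocodazole release, G1/S directly after double thymidine block.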

As for “MPNSEPASLLELFNSIATQGELVRSLKAGNASKDEIDSAVKMLVSLKMSYKAAAGEDYKADCPPGNPAPTSNHGPDATEAEEDFVDPWTVQTSSAKGIDYDKLIVRFGSSKIDKELINRIERATGQRPHHFLRRGIFFSHRDMNQVLDAYENKKPFYLYTGRGPSSEAMHVGHLIPFIFTKWLQDVFNVPLVIQMTDDEKYLWKDLTLDQAYSYAVENAKDIIACGFDINKTFIFSDLDYMGMSSGFYKNVVKIQKHVTFNQVKGIFGFTDSDCIGKISFPAIQAAPSFSNSFPQIFRDRTDIQCLIPCAIDQDPYFRMTRDVAPRIGYPKPALLHSTFFPALQGAQTKMSASDPNSSIFLTDTAKQIKTKVNKHAFSGGRDTIEEHRQFGGNCDVDVSFMYLTFFLEDDDKLEQIRKDYTSGAMLTGELKKALIEVLQPLIAEHQARRKEVTDEIVKEFMTPRKLSFDFQ [WARS]”, the “solubility change mitosis (log2)” value in the data set with HeLa Kyoto [1] was -0.199. Also, the melting temperature stood at 56.7 °C in the data set with HeLa Kyoto [2] (cell cycle stage: G1/S) and 56.3 °C with HeLa Kyoto [2] (cell cycle stage: mitosis). Moreover, the thermal stability score in the data set on HeLa Kyoto [3] (setting [5]) was -0.453; with HeLa Kyoto [3] (cell cycle stage: mitosis), -0.825. Moreover, the “solubility in G1/S (log2)” value in the data set with HeLa Kyoto [4] is 0.127.

Turning to “MDADDSRAPKGSLRKFLEHLSGAGKAIGVLTSGGDAQGMNAAVRAVVRMGIYVGAKVYFIYEGYQGMVDGGSNIAEADWESVSSILQVGGTIIGSARCQAFRTREGRLKAACNLLQRGITNLCVIGGDGSLTGANLFRKEWSGLLEELARNGQIDKEAVQKYAYLNVVGMVGSIDNDFCGTDMTIGTDSALHRIIEVVDAIMTTAQSHQRTFVLEVMGRHCGYLALVSALACGADWVFLPESPPEEGWEEQMCVKLSENRARKKRLNIIIVAEGAIDTQNKPITSEKIKELVVTQLGYDTRVTILGHVQRGGTPSAFDRILASRMGVEAVIALLEATPDTPACVVSLNGNHAVRLPLMECVQMTQDVQKAMDERRFQDAVRLRGRSFAGNLNTYKRLAIKLPDDQIPKTNCNVAVINVGAPAAGMNAAVRSAVRVGIADGHRMLAIYDGFDGFAKGQIKEIGWTDVGGWTGQGGSILGTKRVLPGKYLEEIATQMRTHSINALLIIGGFEAYLGLLELSAAREKHEEFCVPMVMVPATVSNNVPGSDFSIGADTALNTITDTCDRIKQSASGTKRRVFIIETMGGYCGYLANMGGLAAGADAAYIFEEPFDIRDLQSNVEHLTEKMKTTIQRGLVLRNESCSENYTTDFIYQLYSEEGKGVFDCRKNVLGHMQQGGAPSPFDRNFGTKISARAMEWITAKLKEARGRGKKFTTDDSICVLGISKRNVIFQPVAELKKQTDFEHRIPKEQWWLKLRPLMKILAKYKASYDVSDSGQLEHVQPWSV [PFKP]”, the “solubility change mitosis (log2)” value in the data set with HeLa Kyoto [1] is -0.138. Also, the figures for the melting temperature with HeLa Kyoto [2] (cell cycle stage: G1/S) and in the data set on HeLa Kyoto [2] (cell cycle stage: mitosis) were 57.4 °C and 58.3 °C, respectively. Moreover, the thermal stability score was -0.744 in the data set on HeLa Kyoto [3] (setting [5]) and -1.49 in the data set on HeLa Kyoto [3] (cell cycle stage: mitosis). Further, in the data set on HeLa Kyoto [4], the “solubility in G1/S (log2)” value was -0.0125.

As to “MAAAAASAPQQLSDEELFSQLRRYGLSPGPVTESTRPVYLKKLKKLREEEQQQHRSGGRGNKTRNSNNNNTAAATVAAAGPAAAAAAGMGVRPVSGDLSYLRTPGGLCRISASGPESLLGGPGGASAAPAAGSKVLLGFSSDESDVEASPRDQAGGGGRKDRASLQYRGLKAPPAPLAASEVTNSNSAERRKPHSWWGARRPAGPELQTPPGKDGAVEDEEGEGEDGEERDPETEEPLWASRTVNGSRLVPYSCRENYSDSEEEDDDDVASSRQVLKDDSLSRHRPRRTHSKPLPPLTAKSAGGRLETSVQGGGGLAMNDRAAAAGSLDRSRNLEEAAAAEQGGGCDQVDSSPVPRYRVNAKKLTPLLPPPLTDMDSTLDSSTGSLLKTNNHIGGGAFSVDSPRIYSNSLPPSAAVAASSSLRINHANHTGSNHTYLKNTYNKPKLSEPEEELLQQFKREEVSPTGSFSAHYLSMFLLTAACLFFLILGLTYLGMRGTGVSEDGELSIENPFGETFGKIQESEKTLMMNTLYKLHDRLAQLAGDHECGSSSQRTLSVQEAAAYLKDLGPEYEGIFNTSLQWILENGKDVGIRCVGFGPEEELTNITDVQFLQSTRPLMSFWCRFRRAFVTVTHRLLLLCLGVVMVCVVLRYMKYRWTKEEEETRQMYDMVVKIIDVLRSHNEACQENKDLQPYMPIPHVRDSLIQPHDRKKMKKVWDRAVDFLAANESRVRTETRRIGGADFLVWRWIQPSASCDKILVIPSKVWQGQAFHLDRRNSPPNSLTPCLKIRNMFDPVMEIGDQWHLAIQEAILEKCSDNDGIVHIAVDKNSREGCVYVKCLSPEYAGKAFKALHGSWFDGKLVTVKYLRLDRYHHRFPQALTSNTPLKPSNKHMNSMSHLRLRTGLTNSQGSS [LEMD3]”, the “solubility change mitosis (log2)” value with HeLa Kyoto [1] is -0.0382. Further, the melting temperature is 49.1 °C in the data set with HeLa Kyoto [2] (cell cycle stage: G1/S) and 50.5 °C with HeLa Kyoto [2] (cell cycle stage: mitosis). Moreover, the thermal stability score with HeLa Kyoto [3] (setting [5]) stood at 2.33; with HeLa Kyoto [3] (cell cycle stage: mitosis), 3.33. Also, in the data set on HeLa Kyoto [4], the “solubility in G1/S (log2)” value is 0.0762.

Consider “MAAEREPPPLGDGKPTDFEDLEDGEDLFTSTVSTLESSPSSPEPASLPAEDISANSNGPKPTEVVLDDDREDLFAEATEEVSLDSPEREPILSSEPSPAVTPVTPTTLIAPRIESKSMSAPVIFDRSREEIEEEANGDIFDIEIGVSDPEKVGDGMNAYMAYRVTTKTSLSMFSKSEFSVKRRFSDFLGLHSKLASKYLHVGYIVPPAPEKSIVGMTKVKVGKEDSSSTEFVEKRRAALERYLQRTVKHPTLLQDPDLRQFLESSELPRAVNTQALSGAGILRMVNKAADAVNKMTIKMNESDAWFEEKQQQFENLDQQLRKLHVSVEALVCHRKELSANTAAFAKSAAMLGNSEDHTALSRALSQLAEVEEKIDQLHQEQAFADFYMFSELLSDYIRLIAAVKGVFDHRMKCWQKWEDAQITLLKKREAEAKMMVANKPDKIQQAKNEIREWEAKVQQGERDFEQISKTIRKEVGRFEKERVKDFKTVIIKYLESLVQTQQQLIKYWEAFLPEAKAIA [SNX2]”, for which the “solubility change mitosis (log2)” value in the data set on HeLa Kyoto [1] is -0.226. The melting temperature in the data set on HeLa Kyoto [2] (cell cycle stage: G1/S) was found to be 51.4 °C; in the data set on HeLa Kyoto [2] (cell cycle stage: mitosis) it was 51.2 °C. Further, the thermal stability score is 0.424 in the data set on HeLa Kyoto [3] (setting [5]) and -0.352 with HeLa Kyoto [3] (cell cycle stage: mitosis). In addition, the “solubility in G1/S (log2)” value in the data set with HeLa Kyoto [4] is 0.143.

Consider “MTAPCPPPPPDPQFVLRGTQSPVHALHFCEGAQAQGRPLLFSGSQSGLVHIWSLQTRRAVTTLDGHGGQCVTWLQTLPQGRQLLSQGRDLKLCLWDLAEGRSAVVDSVCLESVGFCRSSILAGGQPRWTLAVPGRGSDEVQILEMPSKTSVCALKPKADAKLGMPMCLRLWQADCSSRPLLLAGYEDGSVVLWDVSEQKVCSRIACHEEPVMDLDFDSQKARGISGSAGKALAVWSLDWQQALQVRGTHELTNPGIAEVTIRPDRKILATAGWDHRIRVFHWRTMQPLAVLAFHSAAVQCVAFTADGLLAAGSKDQRISLWSLYPRA [GNB1L]”, for which, in the data set with HeLa Kyoto [1], the “solubility change mitosis (log2)” value was -0.205. The melting temperature stood at 54.6 °C in the data set with HeLa Kyoto [2] (cell cycle stage: G1/S) and 54.2 °C in the data set with HeLa Kyoto [2] (cell cycle stage: mitosis). The thermal stability score in the data set with HeLa Kyoto [3] (setting [5]) was -0.681; in the data set with HeLa Kyoto [3] (cell cycle stage: mitosis), -0.0471. In the data set with HeLa Kyoto [4], the “solubility in G1/S (log2)” value was 0.0814.

As for “MSEPIRVLVTGAAGQIAYSLLYSIGNGSVFGKDQPIILVLLDITPMMGVLDGVLMELQDCALPLLKDVIATDKEDVAFKDLDVAILVGSMPRREGMERKDLLKANVKIFKSQGAALDKYAKKSVKVIVVGNPANTNCLTASKSAPSIPKENFSCLTRLDHNRAKAQIALKLGVTANDVKNVIIWGNHSSTQYPDVNHAKVKLQGKEVGVYEALKDDSWLKGEFVTTVQQRGAAVIKARKLSSAMSAAKAICDHVRDIWFGTPEGEFVSMGVISDGNSYGVPDDLLYSFPVVIKNKTWKFVEGLPINDFSREKMDLTAKELTEEKESAFEFLSSA [MDH1]”, the “solubility change mitosis (log2)” value in the data set on HeLa Kyoto [1] was -0.111. For the same sequence, the melting temperature with HeLa Kyoto [2] (cell cycle stage: G1/S) came out at 57.2 °C; in the data set on HeLa Kyoto [2] (cell cycle stage: mitosis) it was 56.8 °C. Moreover, the thermal stability score is -0.848 in the data set on HeLa Kyoto [3] (setting [5]) and 0.036 in the data set with HeLa Kyoto [3] (cell cycle stage: mitosis). Also, in the data set on HeLa Kyoto [4], the “solubility in G1/S (log2)” value is 0.43.

Turning to “MEFQAVVMAVGGGSRMTDLTSSIPKPLLPVGNKPLIWYPLNLLERVGFEEVIVVTTRDVQKALCAEFKMKMKPDIVCIPDDADMGTADSLRYIYPKLKTDVLVLSCDLITDVALHEVVDLFRAYDASLAMLMRKGQDSIEPVPGQKGKKKAVEQRDFIGVDSTGKRLLFMANEADLDEELVIKGSILQKHPRIRFHTGLVDAHLYCLKKYIVDFLMENGSITSIRSELIPYLVRKQFSSASSQQGQEEKEEDLKKKELKSLDIYSFIKEANTLNLAPYDACWNACRGDRWEDLSRSQVRCYVHIMKEGLCSRVSTLGLYMEANRQVPKLLSALCPEEPPVHSSAQIVSKHLVGVDSLIGPETQIGEKSSIKRSVIGSSCLIKDRVTITNCLLMNSVTVEEGSNIQGSVICNNAVIEKGADIKDCLIGSGQRIEAKAKRVNEVIVGNDQLMEI [EIF2B3]”, in the data set on HeLa Kyoto [1], the “solubility change mitosis (log2)” value was -0.222. The melting temperature is 50.5 °C in the data set on HeLa Kyoto [2] (cell cycle stage: G1/S) and 50.7 °C with HeLa Kyoto [2] (cell cycle stage: mitosis). Moreover, the thermal stability score in the data set on HeLa Kyoto [3] (setting [5]) was -0.882; in the data set with HeLa Kyoto [3] (cell cycle stage: mitosis) it was -0.4. Further, the “solubility in G1/S (log2)” value in the data set with HeLa Kyoto [4] was -0.0277.

Take “MAAASPLRDCQAWKDARLPLSTTSNEACKLFDATLTQYVKWTNDKSLGGIEGCLSKLKAADPTFVMGHAMATGLVLIGTGSSVKLDKELDLAVKTMVEISRTQPLTRREQLHVSAVETFANGNFPKACELWEQILQDHPTDMLALKFSHDAYFYLGYQEQMRDSVARIYPFWTPDIPLSSYVKGIYSFGLMETNFYDQAEKLAKEALSINPTDAWSVHTVAHIHEMKAEIKDGLEFMQHSETFWKDSDMLACHNYWHWALYLIEKGEYEAALTIYDTHILPSLQANDAMLDVVDSCSMLYRLQMEGVSVGQRWQDVLPVARKHSRDHILLFNDAHFLMASLGAHDPQTTQELLTTLRDASESPGENCQHLLARDVGLPLCQALVEAEDGNPDRVLELLLPIRYRIVQLGGSNAQRDVFNQLLIHAALNCTSSVHKNVARSLLMERDALKPNSPLTERLIRKAATVHLMQ [TTC38]”: the “solubility change mitosis (log2)” value in the data set on HeLa Kyoto [1] was -0.0718. Moreover, the melting temperature with HeLa Kyoto [2] (cell cycle stage: G1/S) and in the data set with HeLa Kyoto [2] (cell cycle stage: mitosis) was 53.1 °C throughout. Besides, the thermal stability score is -0.435 in the data set on HeLa Kyoto [3] (setting [5]) and -0.408 in the data set with HeLa Kyoto [3] (cell cycle stage: mitosis). For the same sequence, the “solubility in G1/S (log2)” value in the data set on HeLa Kyoto [4] amounted to 0.319.
